Results on 3 molecules are retold here after patent US20230414780A1 (VECT HORUS, published 2023).

Test [1] addresses T1, human transferrin receptor (hTfR) fused to EGFP, on CHO cells (human, UniProt P02786 1-760).
T1 construct: whole, on cells; also called human TfR; CHO-hTfR-EGFP; not shown: EGFP from pEGFP-C1 vector, fused to the N-terminal (intracellular) end of hTfR
In words: flow cytometry, CHO cells. In short, it runs like this:
(§1)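 CHO cells expressing TfR-EGFP fusions, blocked in PBS/BSA 2%, then incubated with increasing VHH concentrations for 1 hr at 4° C. Bound VHH detected via anti-6His antibody and Alexa647 secondary, cells PFA-fixed, read by flow cytometry. Apparent Kd from nonlinear fit.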

For test [2], the target named is T2, mouse transferrin receptor (mTfR) fused to EGFP, on CHO cells (mouse, UniProt Q62351 1-763).
T2 construct: whole, on cells; also called mouse TfR; CHO-mTfR-EGFP; not shown: EGFP
T2 sequence (Q62351 whole entry, the tested form may be a part): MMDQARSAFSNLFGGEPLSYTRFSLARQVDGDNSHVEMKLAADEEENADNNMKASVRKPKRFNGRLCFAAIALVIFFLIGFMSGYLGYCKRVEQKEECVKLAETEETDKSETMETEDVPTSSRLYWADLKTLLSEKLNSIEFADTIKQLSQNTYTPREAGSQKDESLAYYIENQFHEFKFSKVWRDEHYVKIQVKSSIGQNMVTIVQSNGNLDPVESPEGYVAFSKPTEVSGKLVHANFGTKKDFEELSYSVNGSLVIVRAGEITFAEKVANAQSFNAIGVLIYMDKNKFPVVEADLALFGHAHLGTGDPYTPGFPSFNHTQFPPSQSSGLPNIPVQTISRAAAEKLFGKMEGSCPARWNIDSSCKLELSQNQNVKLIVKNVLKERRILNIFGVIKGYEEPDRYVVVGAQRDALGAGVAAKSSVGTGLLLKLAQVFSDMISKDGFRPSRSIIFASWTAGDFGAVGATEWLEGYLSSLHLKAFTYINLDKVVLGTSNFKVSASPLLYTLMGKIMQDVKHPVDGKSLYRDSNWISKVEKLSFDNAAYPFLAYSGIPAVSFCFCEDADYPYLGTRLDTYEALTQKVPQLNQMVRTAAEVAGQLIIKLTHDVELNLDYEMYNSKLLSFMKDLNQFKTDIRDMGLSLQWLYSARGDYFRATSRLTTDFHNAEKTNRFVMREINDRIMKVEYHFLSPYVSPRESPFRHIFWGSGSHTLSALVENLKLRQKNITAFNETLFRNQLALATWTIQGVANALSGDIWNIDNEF
In words: flow cytometry, CHO cells. The procedure, abridged: as §1
Background: Flow cytometry measures light scatter and fluorescence of single cells or particles in a stream.

In test [3] the target is T1, human transferrin receptor (hTfR) fused …. In words: apparent Kd, cell-based assay.
Test [4] shares this target. In words: cell-based assay on hTfR; Kd/app (the text, paragraph 408, gives 25.6 nM for this molecule).
The target is the same in test [5]. In words: cell-based assay on hTfR; Kd/app (the text, paragraph 408, gives 16.7 nM for this molecule).

T1 sequence (P02786 whole entry, the tested form may be a part): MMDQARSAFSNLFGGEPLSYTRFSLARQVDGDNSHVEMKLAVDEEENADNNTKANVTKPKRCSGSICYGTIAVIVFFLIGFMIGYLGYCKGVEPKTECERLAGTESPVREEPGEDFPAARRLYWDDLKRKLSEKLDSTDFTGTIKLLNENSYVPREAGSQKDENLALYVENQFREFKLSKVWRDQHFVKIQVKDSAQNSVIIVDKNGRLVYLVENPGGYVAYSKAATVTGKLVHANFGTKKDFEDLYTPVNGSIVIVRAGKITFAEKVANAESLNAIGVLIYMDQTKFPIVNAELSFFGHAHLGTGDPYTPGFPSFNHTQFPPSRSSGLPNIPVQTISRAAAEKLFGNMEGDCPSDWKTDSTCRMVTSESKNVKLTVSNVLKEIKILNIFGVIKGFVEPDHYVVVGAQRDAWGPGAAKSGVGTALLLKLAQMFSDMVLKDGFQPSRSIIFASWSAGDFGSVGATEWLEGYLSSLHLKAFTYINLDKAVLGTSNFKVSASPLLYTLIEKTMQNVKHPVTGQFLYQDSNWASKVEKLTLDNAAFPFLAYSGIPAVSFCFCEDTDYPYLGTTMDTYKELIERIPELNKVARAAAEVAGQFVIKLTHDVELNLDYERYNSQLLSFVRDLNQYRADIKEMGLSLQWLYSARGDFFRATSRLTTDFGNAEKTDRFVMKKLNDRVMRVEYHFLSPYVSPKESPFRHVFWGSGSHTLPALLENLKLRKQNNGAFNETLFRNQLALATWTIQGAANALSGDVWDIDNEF

B1: D12 (neg ctrl) (VHH)
VHH: EVQLVESGGGLVQPGGSLRLSCAASGFTFGSYVMSWVRQAPGKGPEWVSTVSSGGGTTYYADSVKGRFTISRDNAQNTLYLQMNSLKPEDTAVYYCATGRTGLGEGDHRGQGTQVTSSAAAEQKLISEEDLNGAAHHHHHHGS
notes: also called control VHH D12
On to B1, for which the binding result in test [1] and in test [2] was “no binding” throughout.

B2: B8V31-NT(8-13) (VHH)
VHH: EVQLVESGGGVVQPGGSLRLSCAASGEIKSINFMRWYRQAPGKQREWVAGFTRDGSTNYPDSAKGRFTISRDNAKNTVYLQIDSLKPEDTAVYYCYMLDTWGQGTQVTVSS
Turning to B2, the Kd stood at 25.6 nM in test [3] and 16.7 nM in test [4].

B3: C5V30-NT(8-13) (VHH)
VHH: EVQLVESGGGVVQPGGSLKLSCVASGTDKSINFIRWYRQAPGKQREFVAGFTATGNTNYADSMKGRFTISRDNTKNAVYLQIDSLKPEDTAVYYCYMLDKWGQGTQVTVSS
On to B3, for which the results for the Kd in test [3] and in test [5] were 16.7 nM and 25.6 nM, respectively.
